Assay: yeast display, Sf9 membrane polyspecificity reagent, FACS + sequencing; frameworks hold sequencing errors
Method in brief: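 Nanobodies came from a synthetic yeast display library in Saccharomyces cerevisiae BJ5465, induced with galactose for 36–48 hours and stained for 1 hour at 4 °C with 10% biotinylated, detergent-solubilized Sf9 membrane reagent. Cells were enriched on streptavidin microbeads and then FACS-sorted, with low and high (top ~1%) gates set on anti-HA fluorescence for expression and streptavidin fluorescence for reagent binding. Each polyreactivity label reflects the gate a clone came from. Genes were amplified by colony PCR, sequenced by MiSeq 2 × 250 and filtered by CDR length.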

Sequence	polyreactivity (PSR sort gate)
QVQLVESGRGLVQAGGSLRLSCAPSGRIFKYYAKGWYRQAPGKERELVATITSGANTNYADSVKGRFTISRDNAKNTVYLQMNSLKPEDTAVYYCNADLDPRDYGFDYWGQGTQVTVSS	high polyreactivity
QVQLVESGRGLVQAGGSLRLSCAPSGSTFGKYAMGWFRQAPGKERELVAASSSGTSTNYADSVKGRFTISRDNAKNTVYLQMNSRKAEDTSVYYCAADSLKRYDDWGQGTQVTVSS	low polyreactivity
QVQLVESGRGLVQAGGSLRLSCAPSGYIFAANAMGWYRQAPGKERELVAAISASGGSTYYADSVKGRFTISRDNAKNTVYLQMNSLKPEDTAVYYCYVVSDSRLYYRYAYDYWGQGTQVTVSS	high polyreactivity
QVQLVESGRGLVQAGGSLRLSCDASGSILRENAMGWSRQAPGKERELVAVITRGGNTYYADSVKGRFTISRDNAKYTFYLQMNSMKREDTAVYYCAAKRRERYGQTYGYWGQGTQVTVSS	high polyreactivity
QVQLVESGRGLVQAGGSLRLSSAASGSTFHQYTMGWYRQAPGKERELVAGITYRGGSTYADSVKGLFTISRDNAKNTVYLQMNSLKPDDTAVYYCNATPDSVRWDYALSVVRYDYWGQGTQVTVSS	low polyreactivity
QVQLVESGRGLVQAGGSLRVSCAASGSILSINGMGWYRQAPGKERELVATIDGSDGSTFYADSVKGRFTISRDNAKNTVYLQMNSLKPEDTAVYYCAAENFWQTKEYDYWGQGTQVTVSS	low polyreactivity
QVQLVESGRGLVQAGGTLRLSCAPYGRTFYPIAMAWYRQAPGKDRELVAAISYSGGSTYYADSVKGRFTISRDNAKNTVYLQMNRLKPEDTAVYDCAAAFSRDSRDLWGQGTQVTVSS	low polyreactivity
QVQLVESGRGLVQAGVSLRLSCAASGSTFGYYAMGWYRQAPGKERELVAAISYSGGSTYYADSVKGRFTISRDNAKNTVYLQMNSLKQEDTAVYYCAARFTRQMYYWGQGTQVNVSS	high polyreactivity
QVQLVESGRRLVQAGGSLRLSCAASGRTFGFYAMGWYRQAPGKERELVAGITWSGGSTYYADSVKGRFTISRDNAKNTVYLQMNSLKPEDTAVYYCAADVWWYHYLLFDSWGQGTQVTVSS	low polyreactivity
QVQLVESGSGLVQAGGILRLSCAASGFIFDAYAMGWYRQAPGKERELVAGISIGGRTNYADSVTGRFTISRDNALNTVYLQMTSLKPEDTAVYYCAARNYRYYYGSYYRGPITNYEYWGQGNQVTVSS	low polyreactivity
QVQLVESGVCIVEAGGSLRLSCAASGRSLKVYAMGWYRQAPGKERELVAAISQRGGSTYYADSVKGRFTISRDNAKNSVYLQMNSRKPEDTAVYYCAARYPYQSYLYRFDYWGQGTQVTVSS	high polyreactivity
QVQLVESGVCLVQAGGSLRLICAASGNIFYGYAMGWYRQAPGKESELVAAISTGGSTNYADSVKGRFTISRDNAKNTVYLQMNSLKPVDTAVYYCASDDPQQYGVRQLGYDSWGQVTQVTVSS	low polyreactivity
QVQLVESGVCLVQAGGSLRLSCAATGFTLSTNALGWYRQEPGKESELVAVISGGDSTSYADSVKGRFTISRDNAKNTVYLQMNSLKPEETAVYYCAKVYRRYTSGYDYWGQGTQVTVSS	high polyreactivity
QVQLVESGVCLVQAGGSLRLSCASSGRIFKIYMGWYRQAPGKERELVAAISSGGRTYYADSVKGRFTISRDNAKNTVYLQMNSLKPEDTAVYYCAAEGTYYFRYPGPEDYDYWGLGTQVTVSS	high polyreactivity
QVQLVESGVCLVQAGGSLRLSSAASGRTLDQNTMGRYRQAPGKERELVASITYSGGITYYADSVKGRFTISSDNAKNTVYLQMNSLKPEATAVYYCAAQEHGTYDNILGEPLDYWGQGTQVTVSS	low polyreactivity
QVQLVESGVCLVQAGRSLRLSCAASGRTFGYYAMGWYRQAPGKERELVAGITLSGGSTYYADSVKGRFTISRDNAKNTVYLQMNSLKPDDTAVYYCAARRRGRAGRDDYWGQGTQVTVSS	high polyreactivity
QVQLVESGVGIVQAGGSHRLSCAASGRICVRNAMGWYRQAPGKERQLVAAISWSGGTNYADSVKGRFTISRDNAKNTVYLQMNSLKPEDTAVYYCAALSVWSYYTYYYWGQGTQVTVSS	high polyreactivity
QVQLVESGVGIVQAGGSLRLSCAASGITFWRYAMRWYRQARGKERELVAAINSGGGTKYADSVQGRFTISRDNAKNTDYLQMNSLKPEDTAVYYCAAVSRYGWYDYCGQGTQVTVSS	high polyreactivity
QVQLVESGVGLDKAGGSLRLISAASGRILWYNAMGLYRQAPGKEREFVARISISTASTYYADSVKGRFTISRDNAKNTVFLQMNSLKPEDTAVYYCAGKPWRTVPYYYWGQGTQVSVSS	high polyreactivity
QVQLVESGVGLDQAGGSLRLSCAASGFTFYSNAMGWYRQAPGKERELVAAITGRGGRTYYADSVKGRFTISRDNAKNTVYLLMNSLKPEDTAVYYCAAVYHVSTWGGRYYFRQGYDYWGQGTQVTVSS	high polyreactivity
QVQLVESGVGLDQAGGSLRLSCAASGSTFASYAMGWYRQAPGKERELVAAITNGGSTNYADSVKGRFTISRDNAKNTVYLLMNSLKPEDTAVYYCAAYDGFPRRYDYWGQGTQVTVSS	low polyreactivity

Sequence	polyreactivity (PSR sort gate)
QVQLVESGVGLLQAGGSLRLSCAASGFIFSFYAMGWYRQAPGKERELVAGISQSGGRTYYADSVKGRFTISRDNAKNNVFLQMNSLKPEDTAVYYCAAQWYYSLYVSGDYWGQGTQVTVSS	high polyreactivity
QVQLVESGVGLVHAGGSLRLSCAASGITFDHYTMGWYRQAPGKEREFVAAITGSGVRTYYADSVKVRFTISRDNAKNTVYLQMNSLKPEVTAVYYCAAVWRYTGKYWGQGTQVTISS	high polyreactivity
QVQLVESGVGLVHAGGSLRLSCAASGSTFYANTMGWYIQAPGKERELVAAISQSGGSTYYADSVKGRFSISRDNAKNTVYLQMNSLKPEDTAVYYCAARRLPRKERKLYYWGQGTQVTVSS	high polyreactivity
QVQLVESGVGLVQAGGILRLSCAAYGTFGSYAMGWYRQAPGKERELVASISGTGGDTYYADSVKGRFTISRDNAKNTVYLQMNSLKPEDTAVYDCAARWSRYWYLGSWLYDYWGQGTQVSVSS	high polyreactivity
QVQLVESGVGLVQAGGSHRLSCAASGSILAGNVMGWYRQAPGKERELVAAITRSGTSTYYADSVKGRFTISRDNAKNTVYLQMNSLKPEDTAVYYCNSVRRVGFRGRYTDGYWGQGTQVTVSS	high polyreactivity
QVQLVESGVGLVQAGGSLRLICAASGSTFGVYAMGWYRQAPGKERELVARITSGGSTYYADSVKGRFTISRDNAKNTVYLQMNSLKPEDTAVYYCAAVYRRTRSWKFDYWGQGTQVTVSS	high polyreactivity
QVQLVESGVGLVQAGGSLRLIWAASGRTFYRNVMGWYRQAPGKERELVAAISWSGGRTYYADSVKGRFTISRDNAKNTVYLQMNSLKPEDTAVYYCAARYRTLDGEVDYWGQGTQVTVSS	high polyreactivity
QVQLVESGVGLVQAGGSLRLRCAASARIFGWYTMGWNRQSPGKERELVADINFGGSTYYADSVKGRFTISRDNAKNTVYLLMKSLKSEYTAVFYCNADYSVYIIADEYDYWGQGTQVTVSS	low polyreactivity
QVQLVESGVGLVQAGGSLRLRCAASGITFGTYPMGWYRQAPGKEREFVAGYYADSVKGRFTISRDNAKNTVYLQMNSLKPEDTAVYYCAADYLYHDDVDYWGQGTQVTVSS	low polyreactivity
QVQLVESGVGLVQAGGSLRLRCAASGSIFEGNGMGWYRQAPGKERELVASITRSGGSTYDADSVKGRFTISRDNAQNTVYVQMNSLKPEDTAVYYCAAKGTTYGLTIRWYPYLHGYNYWGQGTQVTVSS	low polyreactivity
QVQLVESGVGLVQAGGSLRLSCAASGFTFRRYAMGWYRQAPGKERELVAAITSSGGNTYYADSVKGRFTISRDNAKNTVYLQMNSLKPEDTAVYYCAKRAFYSSSYDYWGQGTQVSVSS	high polyreactivity
QVQLVESGVGLVQAGGSLRLSCAASGIIFPGYVMGWYRQAPGKERELVAAISSGGRTYYADSVKGRFTISRDNAKNTVSLQMNSLKPEDTAVYYCAAGGRARTYYYWGQGTQVTVSS	high polyreactivity
QVQLVESGVGLVQAGGSLRLSCAASGIIFRSYAMGWYRQAPGKERELVAAITSSGGRTYYADSVKGRFTISRDNAKNTVYLQMNSLKPEDTAVYYCAAKTYQQQIVRPMYYWGQGTQVTVSS	high polyreactivity
QVQLVESGVGLVQAGGSLRLSCAASGITFDYYAMGLYRQAPGKERELVAAIRKSGGSTYYADSVKGRFTISRDNAKNTVYLQMNSLKPEDTAVYYCAAGVRSPFRGGYYWGQGTQVTVSS	high polyreactivity
QVQLVESGVGLVQAGGSLRLSCAASGITFPGYAMGWYRQAPGKERELVAVIRKSGTSTYYADSVKGRFTISRDNAKNTVYLQMNSLKPEDTAVYYCAAGGPSTLDDYWGQGTQVTVSS	low polyreactivity
QVQLVESGVGLVQAGGSLRLSCAASGLIFRPYTMGWDRQAPGKERELVATITGSGASTNYADSVKGRFTISRDNAKNTLYLQMNSLKPEDTAVYYCKGRSYSRMYYWGQGTQVTVSS	high polyreactivity
QVQLVESGVGLVQAGGSLRLSCAASGRIFAYNAMGWYRQAPGKERELVAAISSSDDDTYYADSVKGRFTISRDNAKNTVYLQMNSLKPEDTAGYYCAAEWDTDRLWAGPRGSLYDYWGQGTQVTVSS	high polyreactivity
QVQLVESGVGLVQAGGSLRLSCAASGRIFAYYAMGWYRQAPGKERELVAAISSGGTTNYADSVKGRFTISRDNAKNTVYLQMNSLKPEDTAVYYCNADGWRRSRQYYYWGQGTQVTVSS	low polyreactivity
QVQLVESGVGLVQAGGSLRLSCAASGRIFNRNAMGWYRQAPGKERELVAAISHSVGSTYADSVKGRFTLSRDNAKNTVYLQMNSLKPEDTAVYYCAAKYYFEWNSALDYWGQGTQVTVSS	low polyreactivity
QVQLVESGVGLVQAGGSLRLSCAASGRIFRYYTMGRYRHAPGKERELVAAITKSGGRTYYADSVKGRFTISRDTANNTVYLQMNSLKPEDTAVYYCAARRLYWGQGTQVTVSS	high polyreactivity
